Experimental data: publication PMC8096101

Target: SMO657-nanoluc (UniProt P56726)
Test: BRET
Settings: HEK293 cells; SMO657-nanoluc donor, YFP-tagged PKA-C acceptor; BRET ratio (YFP/nanoluc), background-subtracted; parent: est. 2.4; read off a plot

Chain of UniProt P56726 (P56726 65-657): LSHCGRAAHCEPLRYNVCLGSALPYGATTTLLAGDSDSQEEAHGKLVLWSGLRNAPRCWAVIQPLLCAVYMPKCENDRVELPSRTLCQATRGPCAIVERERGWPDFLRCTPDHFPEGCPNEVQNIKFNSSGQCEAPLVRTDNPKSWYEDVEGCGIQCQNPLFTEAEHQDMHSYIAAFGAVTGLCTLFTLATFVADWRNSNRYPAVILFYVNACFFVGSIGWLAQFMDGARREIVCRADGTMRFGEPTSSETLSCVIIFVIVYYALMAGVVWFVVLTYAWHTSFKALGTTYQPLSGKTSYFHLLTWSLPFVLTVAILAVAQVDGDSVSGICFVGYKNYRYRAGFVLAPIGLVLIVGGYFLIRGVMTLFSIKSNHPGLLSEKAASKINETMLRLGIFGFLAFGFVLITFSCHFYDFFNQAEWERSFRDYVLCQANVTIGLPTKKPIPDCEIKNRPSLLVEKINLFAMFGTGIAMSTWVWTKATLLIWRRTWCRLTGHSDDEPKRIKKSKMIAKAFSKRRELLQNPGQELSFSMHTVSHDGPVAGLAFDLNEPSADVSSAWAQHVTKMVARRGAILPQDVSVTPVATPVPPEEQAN

- response: 2.5 BRET
Substance: PKA-C-YFP (PKA catalytic subunit alpha, carboxyl-terminally YFP-tagged) (from UniProt P05132) H87Q; W196R
